“Also recorded” adds a separate entry of the source.
B1: Cry2Aa without a TraP: Cry2Aa protein expressed in Arabidopsis from control plasmid without a chloroplast transit peptide sequence upstream of the cry2Aa gene (protein, UniProt P0A377 1-633, looked up)
Pesticidal crystal protein …: MNNVLNSGRTTICDAYNVVAHDPFSFEHKSLDTIQKEWMEWKRTDHSLYVAPVVGTVSSFLLKKVGSLIGKRILSELWGIIFPSGSTNLMQDILRETEQFLNQRLNTDTLARVNAELIGLQANIREFNQQVDNFLNPTQNPVPLSITSSVNTMQQLFLNRLPQFQIQGYQLLLLPLFAQAANMHLSFIRDVILNADEWGISAATLRTYRDYLRNYTRDYSNYCINTYQTAFRGLNTRLHDMLEFRTYMFLNVFEYVSIWSLFKYQSLMVSSGANLYASGSGPQQTQSFTAQNWPFLYSLFQVNSNYILSGISGTRLSITFPNIGGLPGSTTTHSLNSARVNYSGGVSSGLIGATNLNHNFNCSTVLPPLSTPFVRSWLDSGTDREGVATSTNWQTESFQTTLSLRCGAFSARGNSNYFPDYFIRNISGVPLVIRNEDLTRPLHYNQIRNIESPSGTPGGARAYLVSVHNRKNNIYAANENGTMIHLAPEDYTGFTISPIHATQVNNQTRTFISEKFGNQGDSLRFEQSNTTARYTLRGNGNSYNLYLRVSSIGNSTIRVTINGRVYTVSNVNTTTNNDGVNDNGARFSDINIGNIVASDNTNVTLDINVTLNSGTPFDLMNIMFVPTNLPPLY
B2: TraP11: chimeric chloroplast transit peptide, SEQ ID NO:2; N-terminus Glycine max, C-terminus Brassica napus; tested fused to YFP (pDAB101980) (protein)
chain: MAQVSRVHNLAQSTQIFGHSSNSNKLKSVNSVSLKTHQPRASSWGLKKSGTMLNGSVIRPVKVTASVS
modifications: TraP11

Columns and labels:
tobacco budworm (TBW) = assay: Insect bioassay of Cry2Aa Arabidopsis events, tobacco budworm; type: in vivo
Method: (§1) The effectiveness of the TraP11 chimeric chloroplast transit peptides on Cry2Aa protein expression in Arabidopsis thaliana was assessed. Transgenic Arabidopsis plants which contained TraP11 chimeric chloroplast transit peptides fused to the Cry2Aa protein were assayed for insect tolerance to soybean looper (SBL) and tobacco budworm (TBW).
(§2) A small aliquot of T2 seed (approx. 100-200 seeds) for each event were suspended in 40 mls of 0.1% agarose solution and cold stratified at 4° C. for 24 hrs. The stratified seeds were then sown by pipetting 10 ml of seed onto the surface of four flats in a propagation flat. The flats were filled with Sunshine #5 soil Media™ (Sun Gro; Bellevue, Wash.) and lightly covered with fine vermiculite. The trays were saturated in Hoagland's fertilizer prior to sowing and as needed afterward. After sowing, humidity domes were used to cover the trays and they were then placed into a Conviron™ growth chamber set at 24° C. with a 16 hr photo period. Incandescent and fluorescent lights provided a light level of 200 PAR. After 5 days the seeds germinated and the domes were removed. The first herbicide selection of transformants was on day 6 and the second on day 10. Liberty™ herbicide (a.i. glufosinate-ammonium) was applied using a DeVilbiss atomizer hand sprayer at a rate of 200 g ai/ha to remove nulls. Roughly 25% of the plants were nulls as expected. A row of wild type checks were also included in the selection and they had 100% mortality after two herbicide applications. At 14 days the plants were ready for transplanting. […] The flats were presoaked with Hoagland's fertilizer prior to transplant and afterward as needed. The transplants were propagated in a non-air conditioned green house set at 25° C. with 14 hours of supplemental light. Silique development was inhibited by trimming with scissors and thus created more plant tissue for testing. Plants were ready for DNA sampling at 16-18 days and ready for bio-assay at about 23 days. The putative transgenic plants were screened using molecular confirmation assays and identified events were advanced for protein analysis and bioassay results.
(§3) Both sets of T1 Arabidopsis events were tested in insect bioassay experiments. […] There was a correlation between protein expression and leaf protection against both SBL and TBW for Arabidopsis events expressing Cry2Aa without a TraP (r^2=0.49 [SBL], 0.23 [TBW]), and for Arabidopsis events expressing Cry2Aa with TraP11 (r^2=0.75 [SBL], 0.17 [TBW]). Resultantly, an increase in protein expression caused significant protection against leaf damage (Pr<0.05).

soybean looper (SBL) = assay: Insect bioassay of Cry2Aa Arabidopsis events, soybean looper; type: in vivo
Method: as §1, §2, §3

[1] = system: chloroplasts of the tobacco leaf tissues; assay: Tobacco transient assay, confocal microscopy of TraP-YFP/GFP; type: cell-based, Nicotiana tabacum; details: TraP-YFP or TraP-GFP fusion, Agrobacterium-infiltrated tobacco leaf tissue
Text: The above described chimeric chloroplast transit peptide sequences were initially tested via a transient in planta assay. Polynucleotide sequences which encode the TraP10 (SEQ ID NO:9), TraP11 (SEQ ID NO:10), TraP17 (SEQ ID NO:11), TraP18 (SEQ ID NO:12), TraP19 (SEQ ID NO:13), TraP26 (SEQ ID NO:14), TraP27 (SEQ ID NO:15), and TraP28 (SEQ ID NO:16), chimeric chloroplast transit peptide sequences were synthesized. A linker sequence (SEQ ID NO:17) was incorporated between the TraP sequence and the yfp coding sequence of TraP10 and TraP11. The resulting constructs contained two plant transcription units (PTU). The first PTU was comprised of the Arabidopsis thaliana Ubiquitin 10 promoter (AtUbi10 promoter; Callis, et al., (1990) J. Biol. Chem., 265: 12486-12493), TraP-yellow fluorescent protein fusion gene (TraP-YFP; US Patent App. 2007/0298412) or the TraP-green fluorescent protein fusion gene (TraP-GFP; Sheen et al., (1995) Plant J., 8(5): 777-84), and Agrobacterium tumefaciens ORF 23 3′ untranslated region (AtuORF23 3′UTR; U.S. Pat. No. 5,428,147). The second PTU was comprised of the Cassava Vein Mosaic Virus promoter (CsVMV promoter; Verdaguer et al., (1996) Plant Molecular Biology, 31: 1129-1139), phosphinothricin acetyl transferase (PAT; Wohlleben et al., (1988) Gene, 70: 25-37) or DSM-II (International Patent App. 2008070845), and Agrobacterium tumefaciens ORF 1 3′ untranslated region (AtuORF1 3′UTR; Huang et al., (1990) J. Bacteriol., 172: 1814-1822). Construct pDAB101979 contains the TraP10 chimeric chloroplast transit peptide (FIG. 3). Construct pDAB101980 contains the TraP11 chimeric chloroplast transit peptide (FIG. 4). Construct pDAB107634 contains the TraP17 chimeric chloroplast transit peptide (FIG. 5). Construct pDAB107635 contains the TraP18 chimeric chloroplast transit peptide (FIG. 6). Construct pDAB107636 contains the TraP19 chimeric chloroplast transit peptide (FIG. 7). Construct pDAB109847 contains the TraP26 chimeric chloroplast transit peptide (FIG. 8). Construct pDAB109848 contains the TraP27 chimeric chloroplast transit peptide (FIG. 9). Construct pDAB109849 contains the TraP28 chimeric chloroplast transit peptide (FIG. 10). […] The constructs were confirmed via restriction enzyme digestion and sequencing. Finally, the constructs were transformed into Agrobacterium tumefaciens and stored as glycerol stocks.
From an Agrobacterium glycerol stock, a loop full of frozen culture was inoculated into 2 ml of Yeast-extract Peptone Dextrose (100 μg/ml spectinomycin) in a 14 ml sterile tube. The inoculated media was incubated at 28° C. overnight with shaking at 200 rpm. The following day about 100 μl of the culture was used to inoculate 25 ml of YPD (100 μg/ml spectinomycin) in a 125 ml sterile tri-baffled flask, and incubated overnight at 28° C. overnight with shaking at 200 rpm. The following day the cultures were diluted to an OD600 of 0.5 in sterile ddH2O (pH 8.0). The diluted Agrobacterium strain was mixed with a second Agrobacterium strain containing the P19 helper protein at a ratio of 1:1. The culture were used for tobacco leaf infiltration via the Voinnet method. Voinnet O, Rivas S, Mestre P, and Baulcombe D, (2003) An enhanced transient expression system in plants based on suppression of gene silencing by the p19 protein of tomato bushy stunt virus. The Plant Journal, 33: 949-956. Infiltrated tobacco plants were placed in a Conviron™ set at 16 hr of light at 24° C. for at least three days until being assayed.
Agrobacterium-infiltrated tobacco leaves were severed from the plant, and placed into a petri-dish with water to prevent dehydration. The infiltrated tobacco leaves were observed under blue light excitation with long-pass filter glasses held in place using a Dark Reader Hand Lamp™ (Clare Chemical Research Co.; Dolores, Colo.) to identify undamaged areas of the leaf that were successfully expressing the YFP or GFP reporter proteins. […]

[2] = system: infiltrated tobacco cells; assay: Western blot of infiltrated tobacco plants; type: cell-based, Nicotiana tabacum; details: infiltrated tobacco leaf tissue
Method: Samples of the infiltrated tobacco plants were assayed via Western blotting. Leaf punches were collected and subjected to bead-milling. About 100-200 mg of leaf material was mixed with 2 BBs (Daisy; Rogers, Ark.) and […] of PBST for 3 minutes in a Kleco™ bead mill. The samples were then spun down in a centrifuge at 14,000× g at 4° C. The supernatant was removed and either analyzed directly via Western blot or immunoprecipitated. The immunoprecipitations were performed using the Pierce Direct IP Kit™ (Thermo Scientific; Rockford, Ill.) following the manufacturer's protocol. Approximately, 50 μg of anti-YFP or anti-GFP was bound to the resin. The samples were incubated with the resin overnight at 4° C. Next, the samples were washed and eluted the following morning and prepped for analysis by combining equal volumes of 2×8M Urea sample buffer and then boiling the samples for 5 minutes. The boiled samples were run on a 4-12% SDS-Bis Tris gel in MOPS buffer for 40 minutes. The gel was then blotted using the Invitrogen iBlot™ (Life Technologies; Carlsbad, Calif.) following the manufacturer's protocol. The blotted membrane was blocked for 10 minutes using 5% non-fat dry milk in PBS-Tween® solution. The membrane was probed with the primary antibody (monoclonal anti-GFP or anti-YFP in rabbit) used at a 1:1000 dilution in the 5% non-fat dry milk in PBS-Tween® solution for 1 hour. Next, the membrane was rinsed three times for five minutes with PBS-Tween® to remove all unbound primary antibody. The membrane was probed with a secondary monoclonal anti-rabbit in goat antibody (Life Technologies) used at a 1:1000 dilution, for 60 minutes. The membrane was washed as previously described and developed by adding Themo BCIP/NBT™ substrate. The colormetric substrate was allowed to develop for 5-10 minutes and then the blots were rinsed with water before being dried.

Row | Molecule | protection of Arabidopsis plants from TBW damage (tobacco budworm (TBW)) | Cry2Aa protein concentration resulting in less than 30% leaf damage (tobacco budworm (TBW); Arabidopsis events) [ng/cm^2] | Cry2Aa protein level at the 20% leaf damage cut-off point (tobacco budworm (TBW); Arabidopsis events) | protection of Arabidopsis plants from SBL damage (soybean looper (SBL)) | minimum Cry2Aa protein expression for lower than 20% leaf damage (soybean looper (SBL); Arabidopsis events) | minimum Cry2Aa protein expression for lower than 30% leaf damage (soybean looper (SBL); Arabidopsis events) | translocation of YFP or GFP fluorescent protein into chloroplasts [1] | translocation of YFP or GFP fluorescent protein into chloroplasts ([1]; listed as TraP11-YFP) | TraP processed and cleaved from the YFP or GFP protein [2]
1 | B1 | protected from TBW damage | ~1.5 | 2.0-2.5 ng/cm^2 | protected from SBL damage | 2.0-2.5 ng/cm^2 | about 1.5 ng/cm^2 | – | – | –
2 | B2 | provided insect tolerance | – | – | provided insect tolerance | – | – | accumulated within the chloroplasts; also recorded: successfully targeted YFP to tobacco chloroplasts | translocated into the chloroplasts | processed and cleaved from the YFP or GFP protein

— patent publication US10253323B2, “Chloroplast transit peptides” (priority 2015, dated 2019)
